# Laboratory results from article PMC2175517.
# Target: poly(ADP-ribosyl)ated GST-Sp1-8xHis (UniProt P08047)
# Experiment: EMSA
# Conditions: after PARP-1 + 200 uM NAD+ + nicked DNA; approximately 71% reduction; EMSA in buffer D (5 mM HEPES, 10% glycerol, 0.05 mM EDTA, 0.125 mM PMSF), 25 ng poly(dI-dC) (omitted for recombinant Sp1), room temperature 5 min; pH not …
# UniProt P08047, sequence (P08047 whole entry): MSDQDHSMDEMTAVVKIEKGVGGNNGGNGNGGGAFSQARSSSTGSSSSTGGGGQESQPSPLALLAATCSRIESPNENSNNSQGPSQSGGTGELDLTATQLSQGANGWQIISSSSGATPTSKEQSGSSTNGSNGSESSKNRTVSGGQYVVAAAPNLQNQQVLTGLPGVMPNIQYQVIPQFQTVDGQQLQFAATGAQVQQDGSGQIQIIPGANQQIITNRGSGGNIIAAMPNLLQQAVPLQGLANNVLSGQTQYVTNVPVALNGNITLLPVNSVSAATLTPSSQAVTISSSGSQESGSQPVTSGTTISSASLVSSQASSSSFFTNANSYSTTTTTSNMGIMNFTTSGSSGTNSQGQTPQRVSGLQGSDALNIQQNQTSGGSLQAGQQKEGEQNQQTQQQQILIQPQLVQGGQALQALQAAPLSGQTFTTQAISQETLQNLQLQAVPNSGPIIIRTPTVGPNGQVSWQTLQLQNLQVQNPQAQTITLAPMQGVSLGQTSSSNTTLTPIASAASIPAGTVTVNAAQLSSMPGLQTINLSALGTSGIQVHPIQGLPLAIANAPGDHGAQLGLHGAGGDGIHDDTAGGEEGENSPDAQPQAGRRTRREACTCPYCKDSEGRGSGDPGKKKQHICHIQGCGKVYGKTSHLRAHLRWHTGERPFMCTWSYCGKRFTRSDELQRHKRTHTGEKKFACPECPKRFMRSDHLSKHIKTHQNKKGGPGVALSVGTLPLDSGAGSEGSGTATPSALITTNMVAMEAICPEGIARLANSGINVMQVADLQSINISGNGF
sequence,measurement,value
GATCATATCTGCGGGGCGGGGCAGACACAG (double strand) [Sp1 oligonucleotide],binding signal (% of unmodified Sp1),29
